We go through two molecules from publication PMC12871438, “Single-molecule localization microscopy reveals the molecular organization of endogenous membrane receptors” (Science Advances, 2026).

Series [1] deals with CD45 (human (endogenous in Jurkat)) (UniProt P08575). Kind of series: dSTORM localization statistics (number of localizations per cluster); live Jurkat T cells of large passage number labelled on ice with HI30-AF647, then fixed with 2% FA and 0.25% GA; TIRF on the basal membrane; DBSCAN clusters compared with theoretical monomer and dimer distributions.
Series [2] deals with the molecule itself. Kind of series: dSTORM localization statistics (number of localizations per cluster); Jurkat T cells labelled with FN50-AF647, live on ice or after PFA or FA fixation, independent of the passage number; DBSCAN clusters compared with theoretical monomer and dimer distributions.

Take “CD45 (from UniProt P08575 26-1306) (receptor)”: the stoichiometry N (as a rule, a count of units in the complex or per binding partner) in series [1] amounted to 2.

B1: CD69 (receptor, human (endogenous in Jurkat), UniProt Q07108 1-199, looked up)
chain: MSSENCFVAENSSLHPESGQENDATSPHFSTRHEGSFQVPVLCAVMNVVFITILIIALIALSVGQYNCPGQYTFSMPSDSHVSSCSEDWVGYQRKCYFISTVKRSWTSAQNACSEHGATLAVIDSEKDMNFLKRYAGREEHWVGLKKEPGHPWKWSNGKEFNNWFNVTGSDKCVFLKNTEVSSMECEKNLYWICNKPYK
notes: CD69, endogenous in the plasma membrane of human Jurkat T cells; the introduction describes it as a phosphorylated disulfide-linked homodimer; Written as the protomer; the self-association row gives the dimer; Detected with the anti-CD69 antibody FN50-AF647; source: endogenous, on Jurkat T cells (Jurkat E6-1)
On to B1, for which, in series [2], the “stoichiometry N” value worked out at 2.
